Measured values taken from the supplement of paper PMC10567573.

B1: PTPRD (parent)
chain: LTKLREMGREKCHQYWPAERSARY
B2: LCOR (parent)
chain: PCAGSTSLSHSPGCSSTQGNGRPG

Variants of: B1
Assay: protein stability index of a GFP-peptide fusion (GPS, HEK-293T) (PSI 1-6); higher = more stable
Details: c terminus: a fixed tail appended
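Also: lentivirally expressed fusions sorted by FACS into six bins by GFP to DsRed ratio, PSI derived from sequencing read proportions per bin multiplied by bin number.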

Protein stability index, by site and new letter:
G8: K 2.04, L 1.67, M 2.07, N 2.29, P 2.44, Q 3.13, R 2.53, S 1.94, T 2.95, V 2.58, W 1.85, Y 2.03
R9: A 2.64, C 2.15, D 3.48, E 2.86, F 2.38, G 2.79, H 2.73, I 2.29, K 2.84, L 2.73, M 2.8, N 2.68, P 2.53, Q 3.05, S 2.81, T 2.65, V 1.92, W 2.04, Y 2.16
E10: A 2.08, C 2.65, D 2.3, F 2.13, G 2.25, H 2.05, I 1.91, K 2.03, L 1.99, M 1.83, N 2.46, P 2.71, Q 1.97, R 2.42, S 2.3, T 1.87, V 2.28, W 2.15, Y 2.48
K11: A 3.23, C 2.34, D 3.21, E 3.17, F 2.14, G 2.61, H 2.4, I 2.53, L 2.21, M 2.64, N 2.74, P 2.6, Q 2.44, R 2.26, S 2.4, T 2.5, V 2.53, W 1.89, Y 2.39
C12: A 3.2, D 3.48, E 3.11, F 2.58, G 2.98, H 2.83, I 2.35, K 2.27, L 2.39, M 2.1, N 3.04, P 3.09, Q 2.83, R 2.51, S 2.66, T 3.38, V 2.35, W 2.25, Y 2.98
H13: A 2.66, C 1.86, D 3.17, E 2.74, F 2.15, G 2.66, I 2.33, K 2.53, L 2.77, M 1.97, N 2.79, P 2.43, Q 2.83, R 2.31, S 2.28, T 2.65, V 2.02, W 1.77, Y 2.38
Q14: A 2.46, C 1.82, D 2.47, E 3.05, F 1.84, G 2.46, H 2.95, I 2.27, K 2.48, L 2.5, M 2.04, N 2.64, P 1.69, R 2.04, S 2.68, T 2.62, V 2.61, W 1.41, Y 1.85
Y15: A 2.93, C 2.6, D 3.31, E 3.54, F 2.86, G 3.46, H 3.41, I 2.59, K 3.1, L 2.46, M 2.53, N 3.19, P 2.64, Q 2.79, R 2.82, S 2.92, T 2.82, W 1.99
W16: A 3.15, C 2.8, D 3.8, E 3.47, F 2.91, G 3.25, H 2.91, I 2.7, K 3.03, L 2.96, M 2.85, N 3.5, P 3.27, Q 3.26, R 3.29, S 2.84, T 2.6, V 2.76, Y 2.58
P17: A 2.12, C 1.79, D 2.79, E 2.5, F 1.99, G 2.29, H 1.75, I 2.25, K 2.58, L 2.01, M 1.97, N 1.84, Q 2.16, R 2.37, S 2.09, T 2.32, V 1.74, W 2.04, Y 2.17
A18: C 2.31, D 2.49, E 2.73, F 2.21, G 2.06, H 2.19, I 2.21, K 2.48, L 1.87, M 1.97, N 2.16, P 2.39, Q 2.53, R 2.13, S 2.17, T 2.27, V 2.26, W 2.16, Y 1.97
E19: A 2.31, C 2.21, D 2.81, F 2.29, G 2.18, H 2.06, I 1.91, K 2.75, L 1.7, M 2.19, N 2.46, P 2.29, Q 2.2, R 2.56, S 2.29, T 2.21, V 1.67, W 2.15, Y 1.86
R20: A 2.05, C 2.42, D 2.92, E 2.69, F 1.93, G 2.88, H 2.2, I 1.86, K 2.28, L 2.34, M 2.25, N 2.62, P 2.77, Q 2.38, S 2.3, T 2.66, V 2.03, W 1.51, Y 2.33
S21: A 2.58, C 1.7, D 2.83, E 2.15, F 2, G 1.91, H 1.91, I 2.99, K 2.72, L 1.96, M 1.96, N 2.17, P 2.24, Q 2.08, R 2.16, T 2.77, V 2.17, W 1.94, Y 2.61
A22: C 2.15, D 2.4, E 2.53, F 1.58, G 2.33, H 2.21, I 2.08, K 2.65, L 2.12, M 2.33, N 2.57, P 2.65, Q 2.54, R 2.42, S 2.16, T 3.02, V 2.64, W 1.83, Y 2.23
R23: A 2.42, C 2.06, D 3.39, E 2.67, F 1.79, G 2.38, H 2.26, I 1.99, K 2.49, L 2.09, M 1.69, N 2.24, P 3.02, Q 1.74, S 1.96, T 2.4, V 1.85, W 1.68, Y 1.6
Y24: A 2.59, C 2.65, D 3.55, E 3.1, F 2.21, G 2.67, H 2.75, I 2.29, K 3.02, L 2.31, M 2.12, N 3.2, P 2.5, Q 2.65, R 2.7, S 3.01, T 2.35, V 2.41, W 2.46

Variants of: B2
Assay: as above
Details: c terminus: a fixed tail appended

Protein stability index: each site, then its substitutions
P1: A 2.61, C 4.16, D 4.08, E 3.77, F 3.04, H 2.48, I 3.48, K 4.35, L 3.57, M 3.39, N 4.33, R 3.63, S 3.12, Y 2.96
C2: A 2.92, F 3.99, H 4.99, I 2.92, K 4.48
